Laboratory results published in patent US20250346676A1.

Tests used:
[1] = target: human recombinant CD64 (R&D Systems) (human) (UniProt P12314); assay: SPR (Biacore T200); construct captured on Protein A, soluble CD64 as analyte
FcγRIIaH131 (human) = FcγRIIaH131 (human) (UniProt P12318); assay: TR-FRET competition with labeled competitor antibody on cells bearing the receptor
FcγRIIb = FcγRIIb (UniProt P31994); assay: as above
FcγRIIIaV158 = FcγRIIIaV158 (UniProt P08637); assay: as above
Sequence of FcγRIIIaV158 (P08637 17-254 F176V limits assumed): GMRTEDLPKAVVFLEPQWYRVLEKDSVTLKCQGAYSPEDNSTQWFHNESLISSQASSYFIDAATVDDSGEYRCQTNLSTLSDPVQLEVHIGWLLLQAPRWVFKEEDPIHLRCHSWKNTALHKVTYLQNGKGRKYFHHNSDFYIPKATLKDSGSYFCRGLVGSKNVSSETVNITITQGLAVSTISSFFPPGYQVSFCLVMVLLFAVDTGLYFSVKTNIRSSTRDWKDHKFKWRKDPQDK

Sequence of human recombinant CD64 (R&D Systems) (human) (P12314 16-288 limits assumed): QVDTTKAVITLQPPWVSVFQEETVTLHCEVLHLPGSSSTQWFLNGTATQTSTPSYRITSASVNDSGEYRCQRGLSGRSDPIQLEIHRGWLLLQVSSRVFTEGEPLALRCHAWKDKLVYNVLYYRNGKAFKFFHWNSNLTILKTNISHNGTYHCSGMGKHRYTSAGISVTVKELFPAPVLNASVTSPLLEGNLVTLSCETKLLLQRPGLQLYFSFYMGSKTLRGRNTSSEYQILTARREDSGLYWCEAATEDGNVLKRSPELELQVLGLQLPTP
Sequence of FcγRIIb (P31994 43-310 limits assumed): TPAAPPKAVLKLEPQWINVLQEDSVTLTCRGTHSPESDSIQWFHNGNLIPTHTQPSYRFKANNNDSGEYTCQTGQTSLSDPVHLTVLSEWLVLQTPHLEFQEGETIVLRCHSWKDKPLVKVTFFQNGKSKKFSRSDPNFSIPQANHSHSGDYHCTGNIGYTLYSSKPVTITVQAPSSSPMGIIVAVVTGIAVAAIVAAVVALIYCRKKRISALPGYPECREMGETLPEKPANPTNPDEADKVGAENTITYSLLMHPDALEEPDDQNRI
Sequence of FcγRIIaH131 (human) (P12318 34-317): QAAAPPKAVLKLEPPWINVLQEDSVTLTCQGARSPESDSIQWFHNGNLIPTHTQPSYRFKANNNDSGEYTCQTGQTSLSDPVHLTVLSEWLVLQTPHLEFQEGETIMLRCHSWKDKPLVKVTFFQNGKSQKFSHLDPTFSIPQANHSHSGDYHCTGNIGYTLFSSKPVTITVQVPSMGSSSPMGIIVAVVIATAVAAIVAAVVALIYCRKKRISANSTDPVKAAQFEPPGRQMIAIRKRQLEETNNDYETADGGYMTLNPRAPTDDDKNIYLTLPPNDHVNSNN

CD64 Valency by SPR [1]: 1.5 | IC50 (FcγRIIaH131 (human)): 1270 nM | IC50 (FcγRIIb): 3.29 µM | IC50 (FcγRIIIaV158): 428 nM
Substance: anti-CD20 monoclonal antibody (CDRs from Gazyva (obinutuzumab))
